# Data reported in CN117999282A.
# Tests used:
# [1] = target: cynomolgus Vδ1 antigen DV1/GV77, recombinant heterodimer (食蟹猴 (cynomolgus)); assay: SPR (Reichert 4SPR), antibody on protein A chip
# [2] = target: L1 (DV1-GV4), soluble human Vδ1Vγ4 γδTCR heterodimer, leucine zipper (LZ) format (human); assay: SPR (Reichert 4SPR), antibody on protein A chip
# Chain of L1 (DV1-GV4), soluble human Vδ1Vγ4 γδTCR heterodimer, leucine zipper (LZ) format (human) (main, as listed by the source): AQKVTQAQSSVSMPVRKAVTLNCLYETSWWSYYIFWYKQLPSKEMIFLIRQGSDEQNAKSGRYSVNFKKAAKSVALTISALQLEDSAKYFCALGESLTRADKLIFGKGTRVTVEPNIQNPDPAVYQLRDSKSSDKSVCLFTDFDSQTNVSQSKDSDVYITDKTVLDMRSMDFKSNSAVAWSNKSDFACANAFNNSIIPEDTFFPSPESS
# Chain of cynomolgus Vδ1 antigen DV1/GV77, recombinant heterodimer (食蟹猴 (cynomolgus)) (main, as listed by the source): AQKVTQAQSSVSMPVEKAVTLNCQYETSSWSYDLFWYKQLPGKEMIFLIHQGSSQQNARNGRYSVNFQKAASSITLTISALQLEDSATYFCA
fold increase of affinity against ADT1-4 [1],fold decrease of affinity against ADT1-4-2 [2],fold decrease of affinity against ADT1-4-2 [1],Binder
5 fold,,,"ADT1-4(S74L) (antibody, V domains shown) VH: QVQLQQSGPGLVKPSQTLSLTCAISGDSVSSKSAAWNWIRQSPSRGLEWLGRTYYRSKWSTDYAASVKSRITINPDTSKNQLSLQLNSVTPEDTAVYYCARTWSGYVDVWGQGTLVTVSS VL: DIQMTQSPPALSASVGDRVTITCRASQDINDWLAWYQHKPGKAPKLLIYDASSLESGVPLRFSGSGSGTEFTLTISSLQPDDFATYYCQQSYSTPQVTFGQGTRLEIKR"
,11 fold,23 fold,"ADT1-4-2(L74S) (antibody, part only; not given: mutant kappa chain, V domains shown, part only) VH: EVQLQQSGPGLVKPSQTLSLTCAISGDSVSSKSAAWNWIRQSPSRGLEWLGRTYYRSKWSTDYAASVKSRITINPDTSKNQLSLQLNSVTPEDTAVYYCARTWVGYVDRWGQGTLVTVSS"
